# Results: patent US20060149521A1 (University of California, published 2006)
# Changes are numbered by the printed parent chain.
# B1: human thyroid hormone receptor β1 (hTRβ1), full-length 461 amino acids, wild type (receptor, UniProt P10828 1-461, looked up)
# chain: MTPNSMTENGLTAWDKPKHCPDREHDWKLVGMSEACLHRKSHSERRSTLKNEQSSPHLIQTTWTSSIFHLDHDDVNDQSVSSAQTFQTEEKKCKGYIPSYLDKDELCVVCGDKATGYHYRCITCEGCKGFFRRTIQKNLHPSYSCKYEGKCVIDKVTRNQCQECRFKKCIYVGMATDLVLDDSKRLAKRKLIEENREKRRREELQKSIGHKPEPTDEEWELIKTVTEAHVATNAQGSHWKQKRKFLPEDIGQAPIVNAPEGGKVDLEAFSHFTKIITPAITRVVDFAKKLPMFCELPCEDQIILLKGCCMEIMSLRAAVRYDPESETLTLNGEMAVTRGQLKNGGLGVVSDAIFDLGMSLSSFNLDDTEVALLQAVLLMSSDRPGLACVERIEKYQDSFLLAFEHYINYRKHHVTHFWPKLLMKVTDLRMIGACHASRFLHMKVECPTELFPPLFLEVFED
# modifications: [35S]-Met labelled (in vitro translated)
# B2: GST-GRIP1 (GRIP1 amino acids 721-1121) (other, mouse, UniProt Q61026 721-1121, looked up)
# chain: STAPGSEVTVKQEPASPKKKENALLRYLLDKDDTKDIGLPEITPKLERLDSKTDPASNTKLIAMKTVKEEVSFEPSDQPGSELDNLEEILDDLQNSQLPQLFPDTRPGAPTGSVDKQAIINDLMQLTADSSPVPPAGAQKAALRMSQSTFNNPRPGQLGRLLPNQNLPLDITLQSPTGAGPFPPIRNSSPYSVIPQPGMMGNQGMLGSQGNLGNNSTGMIGSSTSRPSMPSGEWAPQSPAVRVTCAATTGAMNRPVQGGMIRNPTASIPMRANSQPGQRQMLQSQVMNIGPSELEMNMGGPQYNQQQAPPNQTAPWPESILPIDQASFASQNRQPFGSSPDDLLCPHPAAESPSDEGALLDQLYLALRNFDGLEEIDRALGIPELVSQSQAVDAEQFSSQE
# notes: not shown: glutathione-S-transferase (GST) from the pGEX vector
# B3: GST-hERα LBD (282-595) E542K (receptor)
# chain: SAGDMRAANLWPSPLMIKRSKKNSLALSLTADQMVSALLDAEPPILYSEYDPTRPFSEASMMGLLTNLADRELVHMINWAKRVPGFVDLTLHDQVHLLECAWLEILMIGLVWRSMEHPGKLLFAPNLLLDRNQGKCVEGMVEIFDMLLATSSRFRMMNLQGEEFVCLKSIILLNSGVYTFLSSTLKSLEEKDHIHRVLDKITDTLIHLMAKAGLTLQQQHQRLAQLLLILSHIRHMSNKGMEHLYSMKCKNVVPLYDLLLKMLDAHRLHAPTSRGGASVEETDQSHLATAGSTSSHSLQKYYITGEAEGFPATV
# notes: not shown: GST carrier (pGEX-3X) at the N end and its linker
# B4: GST-hERα LBD (282-595) I358R (receptor)
# chain: B3 chain with I77R, K261E
# notes: as for B3
# B5: GST-hERα LBD (282-595) K362A (receptor)
# chain: B3 chain with K81A, K261E
# notes: as for B3
# B6: GST-hERα LBD (282-595) L539R (receptor)
# chain: B3 chain with L258R, K261E
# notes: as for B3
# B7: GST-hERα LBD (282-595) V376R (receptor)
# chain: B3 chain with V95R, K261E
# notes: as for B3
# How the values were obtained:
# [1] = target: hTRβ ligand binding domain (hTRβ LBD), in vitro translated, as used in the GST-GRIP1 binding and peptide competition assays (human) (UniProt P10828); experiment: GST-GRIP1 (563-767) mutant pull-down of in vitro translated TR
# [2] = target: hTRβ ligand binding domain (hTRβ LBD), in vitro translated, as used in the GST-GRIP1 binding and peptide competition assays (human) (UniProt P10828); experiment: titration of the amount of GST-GRIP1 fragment in the pull-down of TR; assigned to the fragment with only NR-box 3 functional
# [3] = target: hTRβ ligand binding domain (hTRβ LBD), in vitro translated, as used in the GST-GRIP1 binding and peptide competition assays (human) (UniProt P10828); experiment: titration of the amount of GST-GRIP1 fragment in the pull-down of TR
# [4] = target: hTRβ ligand binding domain (hTRβ LBD), in vitro translated, as used in the GST-GRIP1 binding and peptide competition assays (human) (UniProt P10828); experiment: titration of the amount of GST-GRIP1 fragment in the pull-down of TR; assigned to the fragment with only NR-box 2 functional
# [5] = target: hTRβ ligand binding domain (hTRβ LBD), in vitro translated, as used in the GST-GRIP1 binding and peptide competition assays (human) (UniProt P10828); experiment: peptide competition (FIG. 11c)
# [6] = target: glucocorticoid receptor (GR), full length; experiment: peptide competition of GR binding to GRIP1
# [7] = target: GRIP1 563-767 His6 GST fusion protein (mouse) (UniProt Q61026); experiment: GST-GRIP1 (563-767) pull-down
# [8] = target: GST-GRIP1 (GRIP1 amino acids 563-1121) (mouse) (UniProt Q61026); experiment: GST-GRIP1 pull-down of in vitro translated GR
# [9] = target: hTRβ ligand binding domain (hTRβ LBD), in vitro translated, as used in the GST-GRIP1 binding and peptide competition assays (human) (UniProt P10828); experiment: peptide competition of hTRβ LBD binding to GST-GRIP1 (563-767) beads
# GRIP1, full-length [10] = target: T1, GRIP1, full-length (mouse, UniProt Q61026 5-1462, limits assumed, [35S]-Met labelled in the pull-down assays (in vitro translated from pSG5-GRIP1)); experiment: cell-based or functional assay
# hTRβ1 L454R, full-length = target: T2, hTRβ1 L454R, full-length (human, UniProt P10828 1-461, [35S]-Met labelled (in vitro translated)); experiment: GST-GRIP1 pull-down of [35S]-hTRβ1 with T3
# T2 construct: range 1-461
# T2 sequence (looked up): B1 chain with L454R
# hTRβ1 E457K, full-length = target: T3, hTRβ1 E457K, full-length (human, UniProt P10828 1-461, [35S]-Met labelled (in vitro translated)); experiment: GST-GRIP1 pull-down of [35S]-hTRβ1 with T3
# T3 construct: range 1-461
# T3 sequence (looked up): B1 chain with E457K
# [11] = target: T4, hTRβ ligand binding domain (hTRβ LBD), in vitro translated, as used in the GST-GRIP1 binding and peptide … (human, UniProt P10828 202-461, limits assumed, [35S]-methionine labelled (in vitro translated)); experiment: peptide competition of hTRβ LBD binding to GST-GRIP1 (563-767) beads
# T4 construct: domain: LBD; also called TR LBD; TR-LBD
# T4 sequence (looked up): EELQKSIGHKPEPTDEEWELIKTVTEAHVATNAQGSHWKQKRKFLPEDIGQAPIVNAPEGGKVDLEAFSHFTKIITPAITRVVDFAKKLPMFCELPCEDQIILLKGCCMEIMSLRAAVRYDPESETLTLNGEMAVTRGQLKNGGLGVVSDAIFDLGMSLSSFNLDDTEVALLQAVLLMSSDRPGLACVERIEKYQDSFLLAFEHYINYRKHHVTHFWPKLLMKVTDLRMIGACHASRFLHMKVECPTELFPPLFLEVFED
# Description: Expression was quantified by phosphoimager analysis (BAS2000, Fuji). […] Binding was performed in the binding buffer described above supplemented with 20 μg/ml BSA and appropriate hormone. […] The reaction was incubated at 4° C. under rotation for 2 hours. In case of competition experiments, the appropriate concentration of peptides were added to the reaction before addition of receptors. […] Beads were washed five times with 200 μl binding buffer+BSA at 4° C. before elution of the bound proteins in 20 μl SDS loading buffer. Eluted beads and input labeled protein were subjected to SDS-PAGE. The fraction of bound nuclear receptors was determined by phosphoimager analysis.
# [12] = target: T5, Human TRβ LBD (His6-E202-D461), purified, liganded with T3 (human, UniProt P10828 202-461); experiment: cocrystallisation and X-ray structure, 3.6 Å, T3-liganded
# T5 construct: range 202-461; Protein of the cocrystal; also called hTRβ LBD; hTR LBD
# T5 sequence: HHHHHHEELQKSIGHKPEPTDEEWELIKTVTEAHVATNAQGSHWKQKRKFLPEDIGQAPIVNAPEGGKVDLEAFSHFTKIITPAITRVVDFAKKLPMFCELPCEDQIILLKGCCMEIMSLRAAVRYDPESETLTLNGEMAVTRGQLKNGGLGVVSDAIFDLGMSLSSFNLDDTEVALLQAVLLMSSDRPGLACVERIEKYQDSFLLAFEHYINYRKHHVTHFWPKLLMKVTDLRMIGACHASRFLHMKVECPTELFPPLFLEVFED
# Description: Possible rotation function solutions were calculated using normalized amplitudes in AMORE from a model of hTRβ LBD with the ligand, T₃, omitted; translation function solutions were subsequently determined using TFFC for the two rotation solutions with the highest correlation coefficients. […] After rigid body refinement of the two hTRβ LBD molecules, electron density maps were calculated.
# GRIP1, full-length [13] = target: T1, GRIP1, full-length; experiment: GST-hERα LBD pull-down of 35S-GRIP1, 1 µM DES
# Description: (§1) The wild-type and mutant GST-hERα LBDs were expressed in BL21(DE3) cells. […] Cleared extracts containing the GST-hERα LBDs were incubated in buffer alone (50 mM Tris, pH 7.4, 150 mM NaCl, 2 mM EDTA, 1 mM DTT, 0.5% NP-40 and a protease inhibitor cocktail) or with 1 μM of either DES or OHT for 1 hour at 4° C. Extract samples containing thirty pmol of GST-LBD were then incubated with 10 μl glutathioneSepharose-4B beads (Pharmacia) for 1 hour at 4° C. […] Immobilized GSThERα LBDs were incubated for 2.5 hours with 2.5 μl aliquots of crude translation reaction mixture diluted in 300 μl of Tris-buffered saline (TBS). After five washes in TBS containing 0.05% NP-40, proteins were eluted by boiling the beads for 10 minutes in sample buffer.
# GRIP1, full-length [14] = target: T1, GRIP1, full-length; experiment: GST-hERα LBD pull-down of 35S-GRIP1, no ligand or 1 µM OHT
# Description: as §1
# T1 sequence (Q61026 5-1462 limits assumed): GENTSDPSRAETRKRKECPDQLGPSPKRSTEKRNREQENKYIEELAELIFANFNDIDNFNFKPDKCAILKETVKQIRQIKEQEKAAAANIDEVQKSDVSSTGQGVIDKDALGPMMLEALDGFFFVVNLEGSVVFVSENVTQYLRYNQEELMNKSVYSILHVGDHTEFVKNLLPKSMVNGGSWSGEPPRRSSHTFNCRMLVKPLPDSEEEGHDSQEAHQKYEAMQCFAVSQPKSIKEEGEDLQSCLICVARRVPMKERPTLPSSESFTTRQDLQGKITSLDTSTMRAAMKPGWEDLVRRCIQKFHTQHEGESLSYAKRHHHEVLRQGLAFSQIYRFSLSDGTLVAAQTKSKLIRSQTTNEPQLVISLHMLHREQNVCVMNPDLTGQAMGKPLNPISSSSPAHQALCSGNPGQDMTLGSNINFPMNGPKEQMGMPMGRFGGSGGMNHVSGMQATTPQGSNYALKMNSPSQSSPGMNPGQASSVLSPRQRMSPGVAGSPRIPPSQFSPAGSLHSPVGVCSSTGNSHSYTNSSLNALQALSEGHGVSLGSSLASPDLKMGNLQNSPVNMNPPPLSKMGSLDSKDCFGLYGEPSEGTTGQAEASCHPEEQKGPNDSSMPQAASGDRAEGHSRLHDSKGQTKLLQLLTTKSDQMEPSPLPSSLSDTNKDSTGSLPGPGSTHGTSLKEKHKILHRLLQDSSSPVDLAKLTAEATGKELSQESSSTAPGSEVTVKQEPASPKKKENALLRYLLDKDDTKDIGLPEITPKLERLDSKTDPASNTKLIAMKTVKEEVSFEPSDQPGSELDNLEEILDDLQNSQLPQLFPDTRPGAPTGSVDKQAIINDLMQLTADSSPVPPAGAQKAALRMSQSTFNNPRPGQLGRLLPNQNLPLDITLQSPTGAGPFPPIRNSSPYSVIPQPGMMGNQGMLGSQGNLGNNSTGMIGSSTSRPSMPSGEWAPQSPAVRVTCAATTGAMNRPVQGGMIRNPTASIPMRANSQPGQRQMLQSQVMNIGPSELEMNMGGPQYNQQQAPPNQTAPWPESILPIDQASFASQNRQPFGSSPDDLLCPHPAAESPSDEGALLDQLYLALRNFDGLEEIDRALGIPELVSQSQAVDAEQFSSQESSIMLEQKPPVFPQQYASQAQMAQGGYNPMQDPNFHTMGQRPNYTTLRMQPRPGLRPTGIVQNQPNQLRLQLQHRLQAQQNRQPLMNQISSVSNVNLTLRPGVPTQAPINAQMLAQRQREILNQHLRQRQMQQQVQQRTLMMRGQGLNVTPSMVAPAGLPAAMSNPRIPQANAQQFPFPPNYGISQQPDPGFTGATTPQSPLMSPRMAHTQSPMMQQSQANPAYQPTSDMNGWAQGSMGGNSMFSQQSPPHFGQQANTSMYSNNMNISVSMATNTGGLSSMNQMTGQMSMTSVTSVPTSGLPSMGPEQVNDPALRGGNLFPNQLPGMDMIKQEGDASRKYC
# Sequence of glucocorticoid receptor (GR), full length (P06536 whole entry, the tested form may be a part): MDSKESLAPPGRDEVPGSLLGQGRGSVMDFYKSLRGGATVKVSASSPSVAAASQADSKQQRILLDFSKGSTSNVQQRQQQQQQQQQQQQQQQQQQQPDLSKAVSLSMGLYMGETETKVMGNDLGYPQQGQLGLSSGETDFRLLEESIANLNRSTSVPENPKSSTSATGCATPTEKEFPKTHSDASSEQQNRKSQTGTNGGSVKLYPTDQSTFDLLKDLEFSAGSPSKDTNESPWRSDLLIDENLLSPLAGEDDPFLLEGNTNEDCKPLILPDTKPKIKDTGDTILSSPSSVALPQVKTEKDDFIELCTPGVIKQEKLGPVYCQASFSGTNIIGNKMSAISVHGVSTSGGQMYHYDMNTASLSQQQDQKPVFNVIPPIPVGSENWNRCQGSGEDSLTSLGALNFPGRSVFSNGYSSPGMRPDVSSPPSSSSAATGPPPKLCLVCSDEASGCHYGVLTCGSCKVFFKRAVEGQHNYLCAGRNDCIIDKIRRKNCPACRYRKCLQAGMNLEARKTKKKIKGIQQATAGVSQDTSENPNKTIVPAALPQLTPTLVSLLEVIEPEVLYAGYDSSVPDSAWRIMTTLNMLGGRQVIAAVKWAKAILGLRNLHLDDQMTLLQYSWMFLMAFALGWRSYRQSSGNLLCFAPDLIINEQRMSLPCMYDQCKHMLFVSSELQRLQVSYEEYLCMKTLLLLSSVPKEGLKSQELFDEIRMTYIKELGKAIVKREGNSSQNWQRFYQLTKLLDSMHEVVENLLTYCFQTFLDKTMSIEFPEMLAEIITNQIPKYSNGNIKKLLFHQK
# Sequence of GRIP1 563-767 His6 GST fusion protein (mouse) (Q61026 other isoform, or with tags, fused parts or gaps): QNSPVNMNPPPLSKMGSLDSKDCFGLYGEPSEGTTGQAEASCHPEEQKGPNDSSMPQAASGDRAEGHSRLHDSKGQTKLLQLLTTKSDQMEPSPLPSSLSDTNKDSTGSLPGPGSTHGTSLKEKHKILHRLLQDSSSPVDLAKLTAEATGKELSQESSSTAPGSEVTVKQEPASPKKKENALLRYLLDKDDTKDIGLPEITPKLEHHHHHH
molecule,measurement,setting,value
GST-GRIP1 (563-767) His6 with non-functional NR-box 2 (hydrophobic residues of NR-box 2 replaced with alanine) (from UniProt Q61026 563-767),loss of TR binding,[1],50%
same,EC50,[2],4 µM
GST-GRIP1 (563-767) His6 with non-functional NR-box 3 (hydrophobic residues of NR-box 3 replaced with alanine) (from UniProt Q61026 563-767),fold stronger binding of TR for NR-box 2 over NR-box 3,[3],4 fold
same,EC50,[4],1 µM
NR-box 2 peptide with the isoleucine of NR-box 2 replaced by phenylalanine,fold reduction of affinity against the NR-box 2 peptide,[5],10 fold
peptide containing the p53 binding site (FxxLW motif),fold weaker binding than a peptide containing NR-box 3,[6],10 fold
"glucocorticoid receptor (GR), full length",affinity as a fraction of that of TR,[7],0.2 fold of TR
same,fold increase of binding against GRIP1 (563-767),[8],3 fold
peptide containing GRIP1 NR-box 1,EC50,[9],130 µM
peptide containing the VP16 binding site (FxxAL motif),fold weaker binding than a peptide containing NR-box 3,[6],10 fold
B1,T3-dependent reporter gene activity in HeLa cells,"GRIP1, full-length [10]",5 fold
B2,binding result,"hTRβ1 L454R, full-length",no binding
same,binding result,"hTRβ1 E457K, full-length",no binding
EKHKILHRLLQDS (also called original NR-box 2 peptide) [GRIP1 NR-box 2 peptide EKHKILHRLLQDS],EC50,[11],1.5 µM
ENALLRYLLDKDD [GRIP1 NR-box 3 peptide ENALLRYLLDKDD],EC50,[11],4 µM
KHKILHRLLQDSS (also called GRIP1 site 2 peptide) [GRIP1 NR-box 2 peptide 686-KHKILHRLLQDSS-698],binding result,[12],binds
B3,binding result,"GRIP1, full-length [13]",no binding
B4,binding result,"GRIP1, full-length [14]",no binding
B5,binding result,"GRIP1, full-length [13]",no binding
B6,binding result,"GRIP1, full-length [14]",no binding
B7,binding result,"GRIP1, full-length [14]",no binding
